Our source for the cytotoxicity of NK92-CD16 cells against NSCLC cells (51chromium-release assay) with the ICAM1-CD11a interaction blocked values is paper PMC5123381.

This assay deals with T1, CD11a (human (endogenous in NK92-CD16)) (UniProt P20701).
T1 sequence: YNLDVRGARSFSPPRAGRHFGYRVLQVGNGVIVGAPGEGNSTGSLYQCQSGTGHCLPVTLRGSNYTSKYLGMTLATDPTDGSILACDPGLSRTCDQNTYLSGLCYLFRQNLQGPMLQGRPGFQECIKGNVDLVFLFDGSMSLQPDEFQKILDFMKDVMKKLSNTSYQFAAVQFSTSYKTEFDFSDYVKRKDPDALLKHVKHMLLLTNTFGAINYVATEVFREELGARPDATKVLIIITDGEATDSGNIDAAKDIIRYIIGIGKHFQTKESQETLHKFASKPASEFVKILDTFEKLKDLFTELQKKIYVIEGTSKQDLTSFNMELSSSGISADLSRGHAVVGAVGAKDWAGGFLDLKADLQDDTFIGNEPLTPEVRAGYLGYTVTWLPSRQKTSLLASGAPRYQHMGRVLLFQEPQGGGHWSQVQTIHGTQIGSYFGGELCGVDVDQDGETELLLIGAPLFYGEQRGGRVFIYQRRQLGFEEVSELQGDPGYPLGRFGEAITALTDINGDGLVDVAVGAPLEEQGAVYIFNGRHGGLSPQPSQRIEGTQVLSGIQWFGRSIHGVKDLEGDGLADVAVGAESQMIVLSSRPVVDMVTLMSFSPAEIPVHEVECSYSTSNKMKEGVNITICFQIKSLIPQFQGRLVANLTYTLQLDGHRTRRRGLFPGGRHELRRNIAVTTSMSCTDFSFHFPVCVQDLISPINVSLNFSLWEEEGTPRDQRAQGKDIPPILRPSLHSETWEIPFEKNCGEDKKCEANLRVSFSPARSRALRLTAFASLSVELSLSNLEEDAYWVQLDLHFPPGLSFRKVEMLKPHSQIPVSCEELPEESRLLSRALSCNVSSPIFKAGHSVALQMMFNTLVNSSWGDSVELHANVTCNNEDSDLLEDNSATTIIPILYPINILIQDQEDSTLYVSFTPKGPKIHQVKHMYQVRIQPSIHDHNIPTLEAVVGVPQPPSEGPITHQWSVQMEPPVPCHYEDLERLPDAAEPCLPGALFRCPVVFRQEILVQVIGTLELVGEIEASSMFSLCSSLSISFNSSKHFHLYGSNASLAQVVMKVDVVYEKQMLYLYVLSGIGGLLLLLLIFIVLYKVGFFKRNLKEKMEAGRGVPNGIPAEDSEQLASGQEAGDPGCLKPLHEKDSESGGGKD

Chain of ICAM-1 (P05362 28-532): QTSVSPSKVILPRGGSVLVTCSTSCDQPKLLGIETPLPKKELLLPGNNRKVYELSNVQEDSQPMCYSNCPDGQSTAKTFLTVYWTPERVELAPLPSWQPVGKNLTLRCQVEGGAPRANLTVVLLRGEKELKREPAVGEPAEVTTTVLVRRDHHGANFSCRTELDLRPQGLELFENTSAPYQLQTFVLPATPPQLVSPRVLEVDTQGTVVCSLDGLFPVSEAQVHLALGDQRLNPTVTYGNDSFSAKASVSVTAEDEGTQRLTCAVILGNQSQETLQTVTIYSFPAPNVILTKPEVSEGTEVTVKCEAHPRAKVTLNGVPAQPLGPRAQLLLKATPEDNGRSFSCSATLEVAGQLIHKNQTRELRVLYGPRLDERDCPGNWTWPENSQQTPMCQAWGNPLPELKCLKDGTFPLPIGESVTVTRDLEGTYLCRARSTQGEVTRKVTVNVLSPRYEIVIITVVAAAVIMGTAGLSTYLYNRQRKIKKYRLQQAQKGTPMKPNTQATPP

In the case of “ICAM-1 (from UniProt P05362 28-532) (ligand)”, the cytotoxicity of NK92-CD16 cells against NSCLC cells (51chromium-release assay) with the ICAM1-CD11a interaction blocked turned out to be 10%.
